Literature values as cited in article PMC2773841.

Molecular target: DnaK (Escherichia coli) (UniProt P0A6Y8)
Sequence (P0A6Y8 2-638): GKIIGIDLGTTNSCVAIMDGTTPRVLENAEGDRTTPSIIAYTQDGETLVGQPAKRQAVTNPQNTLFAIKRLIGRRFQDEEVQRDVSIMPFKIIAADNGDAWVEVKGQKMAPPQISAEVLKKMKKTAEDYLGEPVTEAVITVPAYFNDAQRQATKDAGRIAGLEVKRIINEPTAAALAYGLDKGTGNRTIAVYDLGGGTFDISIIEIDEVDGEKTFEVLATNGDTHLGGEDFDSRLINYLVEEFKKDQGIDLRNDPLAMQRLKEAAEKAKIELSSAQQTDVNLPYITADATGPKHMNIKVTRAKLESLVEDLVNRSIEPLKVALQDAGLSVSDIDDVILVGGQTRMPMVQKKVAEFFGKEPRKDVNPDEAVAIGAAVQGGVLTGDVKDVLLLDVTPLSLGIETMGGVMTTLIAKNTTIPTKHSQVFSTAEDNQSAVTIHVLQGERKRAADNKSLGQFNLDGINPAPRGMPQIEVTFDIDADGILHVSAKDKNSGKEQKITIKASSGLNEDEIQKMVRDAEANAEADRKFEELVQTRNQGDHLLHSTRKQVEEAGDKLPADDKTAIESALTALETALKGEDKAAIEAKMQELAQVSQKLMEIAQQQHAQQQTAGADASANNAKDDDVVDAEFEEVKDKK

GrpE, sequence (P09372 whole entry): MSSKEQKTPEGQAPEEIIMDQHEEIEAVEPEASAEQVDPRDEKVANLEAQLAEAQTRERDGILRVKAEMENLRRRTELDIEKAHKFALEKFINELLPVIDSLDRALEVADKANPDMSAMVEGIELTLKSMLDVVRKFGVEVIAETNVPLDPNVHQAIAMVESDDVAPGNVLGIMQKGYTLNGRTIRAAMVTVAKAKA

Kd: 1 nM
Substance: GrpE (from UniProt P09372)
